{"source": "paper PMC6031081", "about": "“A Novel UDP-Glycosyltransferase of Rhodiola crenulata Converts Tyrosol to Specifically Produce Icariside D2” (BioMed Research International, 2018)", "substrate": "OCCc1ccc(O)cc1", "assay": "purified protein", "format": "biochemical, Rhodiola crenulata", "conditions": "UDP-glucose co-substrate (2 mM), tyrosol varied 0.5-5 mM, 50 mM Tris-HCl, pH 8.6, 30°C, 30 min", "data": [{"protein": "RcUGT1 (Rhodiola crenulata) (protein, 6xHis tag (pQE30), E. coli M15, Ni-NTA purified; primers encode ends MDSDSRP...RRVPLS) MDSDSRPLRVFFFPFMAHGHLIPMVDIARLFSSQGVHSTIITTPLNANYISKTTSLSIKTLPFQASKVGLPDGCENVDMLPSPDLIFKFFQAANLLQKPFENLLELEKPDCLISDIFFPWSVDSAGKFNIPRLVFHGTSFFAMCAMESLKTHKPYKSVSTDSEPFVIPNLPDEIKMTKSQFTVDAWEDTEKGVGKLLADARASGLRSFGVVVNSFYELEPAYADYYKNVLNMKAWCVGPVSVCYRNDEEKIARGKKSAIDDHECLKWLEGKQPDSVVYVCFGSGASFPDEQLRDIALGLEDSGVNFIWVIRRSSESGSEDYLPEGFEDRVEGSGLVIRGWAPQVLILDHPSVGGFVTHCGWNSALEGISAGLPMVTWPLFAEQFFNQKLITDVLKIGVEVGVQKWSRNGEDRVTKEKVEKAVRAVMVGEVAEERRGRARQLGKLAKNAAAKDGSSFIDLHNLLDELKLRRVPLS", "values": [{"measurement": "Km", "result": "972.75 ± 104.31", "unit": "µM"}, {"measurement": "Vmax", "result": 0.0172, "unit": "µmol/min/mg"}, {"measurement": "kcat", "result": "0.0155 ± 0.00044", "unit": "s⁻¹"}]}]}
